Results: US20090035317A1, “Peptides binding to vascular endothelial growth factor” (priority 2007, published 2009)
Bridge positions count the residues as written; N and C are the ends. Ends that are not written are not given here.

Tests used:
[1] = system: biotinylated VEGF; assay: First order dissociation rate constants (koff) of cell-surface displayed peptides, flow cytometry; type: binding; conditions: peptide displayed on bacterial cell surface; for RT koff: room temperature
Method: (§1) Cells displaying VEGF-binding peptides were first incubated with biotinylated VEGF and allowed to equilibrate at 4° C. After centrifugation, excess VEGF was removed. The cells were then resuspended in buffer, such that the concentration of cells was diluted 1:10, as compared to the VEGF-labeling step. Cells were allowed to incubate in buffer at room temperature or 37° C. for times varying from 5 minutes to 21 hours to allow dissociation of VEGF from the cell surface. After the appropriate amount of time, the cells were placed on ice to stop the dissociation, and streptavidin-phycoerythrin (SAPE) was added for fluorescence labeling. After centrifugation, excess SAPE was removed, and cellular fluorescence was measured by flow cytometry. Fluorescence data as a function of dissociation time was used to determine koff.

[2] = system: VEGF; assay: Clone characterization: off-rate from VEGF at room temperature (Example 1); type: binding; conditions: 10 nM VEGF labeling, FIG. 3, FIG. 4
Method: Initial measurements of off-rate were made for each clone in order to narrow down the search for the best binding peptide. Each clone was labeled with 10-nM VEGF. Excess VEGF was washed away, and the protein was allowed to dissociate for 15 and 30 minutes at room temperature. SAPE was added, and secondary labeling was performed on ice. Excel's Regression function was used to calculate koff for each peptide using three time points (0, 15, and 30 minutes) and the standard error for the regression.
Each clone was incubated with 10 nM VEGF and allowed to come to equilibrium. The excess VEGF was washed away, and the cells were separated into 4 aliquots and diluted 1/10 in room temperature PBS. SAPE was added to the appropriate aliquot after 5, 10, 15, and 30 minutes for secondary labeling on ice. The mean fluorescence at these time points was used to determine koff. In most cases, the t=30 minute point could not be incorporated into the regression.
Target sequence in this assay (P15692 207-315 limits assumed): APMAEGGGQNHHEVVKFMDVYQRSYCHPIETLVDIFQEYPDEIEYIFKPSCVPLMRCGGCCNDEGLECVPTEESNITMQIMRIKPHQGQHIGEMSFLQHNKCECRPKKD

[3] = system: VEGF; assay: Equilibrium binding of displayed clones with VEGF at 1 nM and 10 nM; conditions: displayed on cell surface
Target sequence in this assay (P15692 207-320 limits assumed): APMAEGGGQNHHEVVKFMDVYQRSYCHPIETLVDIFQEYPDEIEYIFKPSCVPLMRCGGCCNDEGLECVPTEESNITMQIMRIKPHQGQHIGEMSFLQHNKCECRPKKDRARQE

[4] = system: VEGF; assay: Specificity: retention of VEGF binding fluorescence in BSA and serum; conditions: 10-nM VEGF; serum dilutions; FIG. 5
Method: In addition, measurements of specificity were performed for the four peptides whose off-rate could be calculated. Each clone was incubated with 10-nM VEGF in varying dilutions of BSA and serum followed by secondary labeling with SAPE at the same BSA/serum concentration. It was assumed that a specific peptide would retain more fluorescence upon serum addition than a non-specific peptide. The serum was first prepared by incubation with cells overexpressing the CPXopt template, spinning down the cell pellet and any bacteria-specific proteins bound to them, and removing the supernatant for incubation with the selected clones. Adding BSA up to physiological conditions decreased the mean fluorescence of each clone by an average of ˜40%, seemingly indicating some degree of specificity. […] FIG. 5 gives the fluorescence remaining after serum addition relative to initial fluorescence (at a serum dilution of 1/100), which was taken to be a measure of the specificity of the interaction between the peptide and VEGF. […] Therefore, the change in fluorescence of a gated population of positive binding cells was used to determine the specificity metric. In some cases with undiluted serum, a significant fraction of cells (>˜1%) still fell into this positive, and the fluorescence of this small fraction of cells was used to calculate the specificity. […]
Target sequence in this assay (P15692 207-320 limits assumed): as above

[5] = target: T1, VEGF (Homo sapiens, UniProt P15692); conditions: Fairbrother et al. (1998); read-out: reported equilibrium dissociation constant (KD); cited from earlier work
T1 sequence (P15692 214-315 limits assumed): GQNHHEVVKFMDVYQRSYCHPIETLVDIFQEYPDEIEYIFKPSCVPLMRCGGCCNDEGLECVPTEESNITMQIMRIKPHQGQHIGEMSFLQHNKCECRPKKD

[6] = system: biotinylated recombinant murine VEGF (rmVEGF); assay: Murine cross-reactivity, flow cytometry; type: binding; conditions: rmVEGF at 25 and 250 nM
Method: Cells expressing VEGF-binding peptides were incubated with biotinylated recombinant murine VEGF (rmVEGF). Fluorescence labeling was performed with SAPE as previously described. The first seven clones listed in Table 5 as well as v114 were assayed for cross-reactivity with rmVEGF. All of the ligands analyzed bound rmVEGF at concentrations of 25 and 250 nM, as measured by flow cytometry.

[7] = target: T2, vascular endothelial growth factor (VEGF) (UniProt P15692-4 27-191, limits assumed, biotinylated); assay: flow cytometry, peptide displayed on bacterial cell surface, dissociation of biotinylated VEGF at 37° C.
T2 construct: Soluble biotinylated VEGF used to label cells that display the peptides; also called biotinylated VEGF
Method: as §1

[8] = target: T2, vascular endothelial growth factor …; assay: flow cytometry, peptide displayed on bacterial cell surface, dissociation of biotinylated VEGF at room temperature
Method: as §1

[9] = target: T2, vascular endothelial growth factor …; assay: apparent equilibrium KD measured from the bacterial cell surface, flow cytometry
[10] = target: T2, vascular endothelial growth factor …; assay: comparison of room temperature koff values of Table 5, flow cytometry on displayed peptides
Method: as §1

[11] = target: T2, vascular endothelial growth factor …; assay: flow cytometry competition; soluble v114 premixed with biotinylated VEGF; competitor: displayed L3.F5A.01, compared with displayed L2.F4.04
Method: Biotinylated VEGF was first mixed with various concentrations of soluble v114 peptide (Anaspec); the ratio of soluble peptide to VEGF ranged from ˜2:1 to 5000:1. Cells expressing VEGF binding peptides were then incubated with this VEGF/peptide mixture and allowed to equilibrate at 4° C. After centrifugation, unbound protein/peptide was removed, and the cells were resuspended in SAPE for fluorescence labeling.

[12] = target: T2, vascular endothelial growth factor …; assay: comparison of 37° C. koff values of Table 5, flow cytometry on displayed peptides
Method: as §1

T2 sequence (P15692 other isoform, or with tags, fused parts or gaps limits assumed): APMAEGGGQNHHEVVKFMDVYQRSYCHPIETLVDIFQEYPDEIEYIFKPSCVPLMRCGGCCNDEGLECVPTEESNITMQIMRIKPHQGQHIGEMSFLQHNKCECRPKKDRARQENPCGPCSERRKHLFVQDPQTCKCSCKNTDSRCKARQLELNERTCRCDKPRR
biotinylated VEGF, sequence (P15692 207-320 limits assumed): as the sequence (P15692 207-320 limits assumed) above
biotinylated recombinant murine VEGF (rmVEGF), sequence (Q00731 205-317 limits assumed): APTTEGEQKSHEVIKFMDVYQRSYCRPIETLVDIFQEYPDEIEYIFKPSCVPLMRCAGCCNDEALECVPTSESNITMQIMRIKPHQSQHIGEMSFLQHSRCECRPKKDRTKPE

AKRSSYSMWGAMPGGGSGGGNFGYGKWEWDYGKWLEKV [Clone L3.F5A.03, AKRSSYSMWGAMP-GGGSGGG-NFGYGKWEWDYGKWLEKV]
37° C. koff [1]: 0.0006 s⁻¹ | RT koff [1]: 4.28e-05 s⁻¹

CPVQTMWDWECMRAFIEG [Clone L2.F3B.08]
dissociation rate (in words) [2]: good dissociation kinetics | fluorescence labeling when bound to VEGF [3]: bright fluorescence signals | effect of serum addition on VEGF binding fluorescence [4]: loses more fluorescence upon serum addition than does L2.F4.04 | 37° C. koff [1]: 0.0042 s⁻¹ | RT koff [1]: 0.0072 s⁻¹

GPGWWLWDWDNLGARRGGL (VEGF-binding peptide) [Clone L2.F3A.10]
fluorescence labeling when bound to VEGF [3]: better labeling

HQQLQYWDWIEAVVHNG (VEGF-binding peptide) [Clone L2.F3A.05]
dissociation rate (in words) [2]: slow dissociation rates

NFGYGKWEWDYGKWLEKVG [Clone L2.F4.04]
dissociation rate (in words) [2]: slow dissociation rates | fluorescence labeling when bound to VEGF [3]: bright fluorescence signals | 37° C. koff [1]: 0.0013 s⁻¹ | RT koff [1]: 0.0013 s⁻¹

SKLKTLLWQQGGGSGGGNFGYGKWEWDYGKWLEKV [Clone L3.F6.02, SKLKTLLWQQ-GGGSGGG-NFGYGKWEWDYGKWLEKV]
37° C. koff [1]: 0.0014 s⁻¹ | RT koff [1]: 0.000291 s⁻¹

SSKCGRWGETPCLAEGGGSGGGNFGYGKWEWDYGKWLEKVG [Clone L3.F5A.01, SSKCGRWGETPCLAE-GGGSGGG-NFGYGKWEWDYGKWLEKVG]
37° C. koff [1]: 0.00012 s⁻¹ | RT koff [1]: 2e-05 s⁻¹

SYVLKEWSVPSWGKPGGGSGGGNFGYGKWEWDYGKWLEKV [Clone L3.F6.01, SYVLKEWSVPSWGKP-GGGSGGG-NFGYGKWEWDYGKWLEKV]
37° C. koff [1]: 0.00025 s⁻¹ | RT koff [1]: 0.00011 s⁻¹

VEPNCDIHVMWEWECFERL [v114, soluble peptide from Anaspec; positive control]
Kd [5]: 110 nM | binding of rmVEGF [6]: bound rmVEGF

VTSRYEMREDGSWKKGGGSGGGNFGYGKWEWDYGKWLEKVG [Clone L3.F5A.02, VTSRYEMREDGSWKK-GGGSGGG-NFGYGKWEWDYGKWLEKVG]
37° C. koff [1]: 0.00074 s⁻¹

WKELRFWDWEGGNHKKCVT (VEGF-binding peptide) [Clone L2.F3B.12]
dissociation rate (in words) [2]: slow dissociation rates

B1: L2.F4.04 (peptide)
peptide: NFGYGKWEWDYGKWLEKVG
notes: not shown: CPXopt bacterial display scaffold (carrier)
koff [7]: 0.0013 s⁻¹ | koff [8]: 0.0013 s⁻¹ | Kd [9]: 6.1 nM

B2: L2.F3B.08 (peptide)
peptide: CPVQTMWDWECMRAFIEG
modifications: disulfide 1-11 (inferred)
notes: as for B1
koff [7]: 0.0042 s⁻¹ | koff [8]: 0.0072 s⁻¹ | Kd [9]: 17.8 nM

B3: L3.F5A.03 (peptide)
peptide: AKRSSYSMWGAMPGGGSGGGNFGYGKWEWDYGKWLEKV
modifications: Displayed on the E. coli surface as a fusion to CPXopt; the letters do not carry the scaffold.
notes: Peptide 2 is printed without the final G of L2.F4.04; not shown: CPXopt bacterial display scaffold that carried the peptide on the cell surface
koff [7]: 0.0006 s⁻¹ | koff [8]: 4.28e-05 s⁻¹ | Kd [9]: 3.7 nM

B4: L3.F6.02 (peptide)
peptide: SKLKTLLWQQGGGSGGGNFGYGKWEWDYGKWLEKV
modifications: Displayed on the E. coli surface as a fusion to CPXopt; the letters do not carry the scaffold.
notes: as for B3
koff [7]: 0.0014 s⁻¹ | koff [8]: 0.000291 s⁻¹ | Kd [9]: 5 nM | fold improvement (slower dissociation) against the monodendate parent peptide L2.F4.04 [10]: 4 to 65 fold

B5: L3.F5A.02 (peptide)
peptide: VTSRYEMREDGSWKKGGGSGGGNFGYGKWEWDYGKWLEKVG
notes: as for B1
koff [7]: 0.00074 s⁻¹ | Kd [9]: 2.6 nM

VEPNCDIHVMWEWECFERL (also called Genentech v114 peptide) [soluble v114 peptide (Anaspec)]
fold increase in the concentration of v114 required to block 50% of VEGF binding, bidentate peptide against parent peptide [11]: ≥ 5 fold

B6: L3.F5A.01 (peptide)
peptide: SSKCGRWGETPCLAEGGGSGGGNFGYGKWEWDYGKWLEKVG
notes: also called bidentate peptide L3.F5A.01; not shown: CPXopt bacterial display scaffold (carrier)
fold improvement (slower dissociation) against the monodendate parent peptide L2.F4.04 [12]: ≤ 12 fold | koff [7]: 0.00012 s⁻¹ | koff [8]: 2e-05 s⁻¹ | Kd [9]: 2.1 nM | fold improvement (slower dissociation) against the monodendate parent peptide L2.F4.04 [10]: 4 to 65 fold

B7: L3.F6.01 (peptide)
peptide: SYVLKEWSVPSWGKPGGGSGGGNFGYGKWEWDYGKWLEKV
modifications: Displayed on the E. coli surface as a fusion to CPXopt; the letters do not carry the scaffold.
notes: as for B3
koff [7]: 0.00025 s⁻¹ | koff [8]: 0.00011 s⁻¹ | Kd [9]: 3.5 nM
